Reference: the DeepSol protein solubility set

Assay: soluble on expression in E. coli; label from the status in PepcDB or PDB records

| Sequence | soluble on expression in E. coli |
| --- | --- |
| MSMERSLEAWEEVQRHGQDLADRLAQGFTGLIHINPPSFPWPPNHHHLHKAKLFDLEFPTQHFSVIKDSRFSINQPINGVTAILDIGNKIGQAGVDFGAGLNVMVQQFFRRLPIPFLHEDNNKLVVSVDGDKSTRSHRAYVITKGDLGMATERLRDSGFSKTDDTASVTMSEEEVADSYLRAAGLLGRSKGTIDTSSSYDSRTNGMEHSLAARGDLWRVEASHSSSTASDGNSSLFLLQLGPLLFLRDSTLLLPLHLSKQHLLWYGYDRKSFMDLQFPNGQLTYVSGEGLTTSAFVPFCGGLLQAQGQYPGDMRFSYSCKNKCGTRITPMVHWPDKSFGLDLSQPLAWRRSGLLMKPTIQVSVCPTFGGSNPGIKAEVIHSLSDDLNLICGYALNAHPSAFASVAFGRSKWNGNIGRTGIVVRADTPLASIGQPSFSIQLNNAFEF | soluble |
| MDRLQLYESKKLRRETPLSPLLRIFAGQSVHNHRPMYFRDVAGLEDLKTYLRRTAQTRQIAHAQLFAGEEGGGAFPLALAYARYLNCQMPTDTDACGHCPSCVKYDALAHPDLFFVYPVVNASSSPAPSDDYIRQWREMLGSESYFTPADWLEYIKAGNSQPIIYSKEAEAVEQKLSFRIYEASYRVVMIWQPERMNEAMANKLLKLIEEPPEHTLFFMISSEPDKVLGTIRSRTQLINVRLLHEIEIVEALSRNNQGNTADIIRIAHLAEGNYRRAMDLYRGEWADRDNFVLMGRMMGSIIKGDPSKMRPVADELAALGRVSQIGFLTYCLRLFRELYISRVGVAKLNYLSPEEESFVDMLSGGITGQNIRPVMEEVELAIRHIRQNGNGRMIFFDLLLRLTAALAPALRAKGLK | not soluble |
| VPRIRKLVAALHRRGPHRVLRGDLAFAGLPGVVYTPEAGLHLPGVAFGHDWLTGTSRYSGLLEHLASWGIVAAAPDSERGLAPSVLNLAFDLGVALDIVAGVRLGPGKISVHPAKLGLVGHGFGGSAAVFAAAGLTGTHVKSVAAIFPTVTNPAAEQPAATLDVPGLILTAPGDPKTLTSNALGLSRAWDKATLRIVSKARAGGLVEGRRLTKVLGLPGPHRRTQRSVRALLTGYLLYTLGGDKTYRRFADPDLQLPKTDPIDPEAPPITPGEKIVTLLK | not soluble |
| MGSDKIHHHHHHPWRLLTPDQRYQKRQSQLKSTMSDFFTWCESVHALPQSKFGRAIDYALSQREAMENVLLDGRLELSNNRVERAVKELVIGRKNWLFSTSFKGARSSGIILSVMRSAEANGLDCRKYLEYLFTELPNLSVPGDSKALQDYLPWSSQVRAICAR | not soluble |
| LRANKPVFKNAGATLHDIGDGIVNLEFHTKMNTLGGEVVDAINRSIGIAEKDFQGIVIGNDGANFSAGANLALVLMYAIEQEYDEIDFMIRAFQNTMMRARYSSIPVVVAPHNLTLGGGCEMTLHADHVQAFAETYIGLVEFGVGLIPAGGGTKEFTLRVSDSFEDGDIQVNNLKNMYMHIATAKVATSAEEARSMGILRKSDGITLNRSRLIADAKAAAISLAEAG | not soluble |
| MGSDKIHHHHHHMENGEMIKVLLANPRGFCAGVDRAIEIVERALSVHGAPIYVRHEVVHNRFVVEDLEKKGAVFVENLDEVPAGSILIFSAHGVSHAVRREAEAGQFKVFDATCPLVTKVHIEVAKMRDQGREIIMIGHAGHPEVEGTMGQAEGDGPSMYLVETEEDVEKLQVQDPAHLAYVTQTTLSVDDANRVIQALKGRFPNILGPKKDDICYATQNRQDAVKTMVKQCDLVIVVGSPNSSNSNRLCEVARNAGVDAYMLDRAEQLQEAWLKGKMRIGITAGASAPEVLVQEVISRLRQIVSEQAEREVVVEELRGVVESVVFPLPRN | not soluble |
| MAHHHHHHMATCTLSVARFGRPSTFAHRRVRWLPPYDGNSTCLDWWLPTDAEAADTAADGGAAAIRVRALAVILPGLTGSSKEFYVRRMARQLLRAHMATCVLTSRGVADTHLERPQIFSALFAKDLRHIMQACMTREKVQECLLRRISPLQSSDHHKGAVPIIGVAFSLGGRILTNYVSEQGEAEAPSGFDAVYTITSPHNVSDGAAALRMLLSKLLYGSTLYKRLRAYYERHKNVLQNLPDIDKKLLMDGDSPLVKRLRTVQDFGEFITGPHVGFPGAEAYYVAASSFRRLHHSRMPQVCVVVANDPIYGPPQPAPRWLHLIDMHCGGLVYVEMPVGGHLGFLGCPWSEWTQAPNEMEHLVLRSLIHFIKSADTQAAEAKTNE | soluble |
| MHHHHHHNEEFRPEMLQGKKVIVTGASKGIGREMAYHLSKMGAHVVLTARSEEGLQKVVSRCLELGAASAHYIAGTMEDMTFAEQFIVKAGKLMGGLDMLILNHITQTSLSLFHDDIHSVRRVMEVNFLSYVVMSTAALPMLKQSNGSIAVISSLAGKMTQPMIAPYSASKFALDGFFSTIRTELYITKVNVSITLCVLGLIDTETAMKEISGIINAQASPKEECALEIIKGTALRKSEVYYDKSPLTPILLGNPGRKIMEFFSLRYYNKDMFVSN | soluble |
| MSLLNIIRLLAESLPRISDGNENTDVWVNDMKFKMAYSFLNDDIDVIERELEQTVRSDYPLLSEAGLHLLQAGGKRIRPVFVLLSGMFGDYDINKIKYVAVTLEMIHMASLVHDDVIDDAELRRGKPTIKAKWDNRIAMYTGDYMLAGSLEMMTRINEPKAHRILSQTIVEVCLGEIEQIKDKYNMEQNLRTYLRRIKRKTALLIAVSCQLGAIASGADEKIHKALYWFGYYVGMSYQIIDDILDFTSTEEELGKPVGGDLLQGNVTLPVLYALKNPALKNQLKLINSETTQEQLEPIIEEIKKTDAIEASMAVSEMYLQKAFQKLNTLPRGRARSSLAAIAKYIGKRKFEGHHHHHH | not soluble |
| MGSDKIHHHHHHMAEAQLSLNLDIKHDASLSDFSGPGWMSIIDAVRQLHVGLIGQLYLFGSPATGKSHLLSAICESFIEMDKSAICLSLNELIHTDVNVLSSLENFSLIAIDDLEVIEQNSQWQEALFHLINRSREGQRQLLFAANKPASELPFQLRDLLTRLAQAPSFKVPTGHDLADREALLQSILRRRGWQFDERIANYLLTEGPHRIGAMMEVLNYIQPMFSNLGRSNISKAVIGDALRTIDEQTLAAELADIAQESQVDNDAADQDQHSQHTMPLDF | not soluble |
| MPRASISDTIPMTMASIDAGSVRFTARADKRHLNPLGGVHGGFAATVLDSVTGCAIHSILEAGVGYGTVDLSVKRVKAVPEDTPLVAEGRVLHVPCAIGSQRADLMLAPPRLGRDRRCPAGLEHHHHHH | not soluble |
| SRLDIIRAEMDVVPSPGLPEKVNEKSKNIPLPEGINLLSSKEIIDLIQTHRHQLELYVTKFNPLTDFAGKIHAFRDQFKQLEENFEDLHEQKDKVQALLENARILESKYVASWQDYHSEFSKKYGDIALKKKLEQNTKKLDEESSQLETTTRSIDSADDLDQFIKNYLDIRTQYHLRREKLATWDKQGNLKY | soluble |
| MEPPLTVGAWTMTADSTVTEPIAAAATTTIVADVAIVGGGLAGSLAAAVLARAGHRVALVDKRAVYPDEFRVEKIGGPQLEMFRRLGFIRGLASVACPYDQVLNVREGKVVDVSVGQAYGLPYAGLVAMARGQIPDPSSLIVDEVTAVTCSDDVQHLELASGRRLNARLVVLATGMAGALGYKLGIRRRVLAAGHSVSFGFTIVRRDGTPFDFKALTCYGERTSDGVDYLSLFPVPAGMRANLFMFRDPTDPVMRDLRRDTEATVLRLLPGLQPYLGDFRVTDRVQNWVMDLSVVEGHLQPGVVLIGDAFQTNCPAAGTGVARLLVDVERLCTEYAPRWLATEGMGKEKISEFYSDRDKIAADQQSLKMARFRQALTSRDDISWDVRRRLHFLRRSITHRVDQMRPGWLAQVRSALRALEHHHHHH | not soluble |
| MSLSTLKREQIKKDLKDQEFDVVIIGGGITGAGIALDASERGMKVALVEMQDFAQGTSSRSTKLVHGGLRYLKQLQVGVVAETGRERAIVYENGPHVTTPERMLLPMHKGGSMGKFTTSIGLAMYDRLAGVKKAERKTMLNAKETLEKEPLVKKAGLKGGGSYVEYRTDDARLTIEVMKRAEEKGAKVINHTKSVHFTYDSNEKVNGIQVEDQISNETYPIKAKKVINASGPWVDEVRSGDYARNNKQLRLTKGVHIVIDQSKFPLGQAVYFDTEKDGRMIFAIPREGKAYVGTTDTFYDNNKTSPLANQEDRDYLIDAINYMFPDVNVADEDIESSWAGVRPLILEEGKDPSEISRKDEVWEGKSGLLTIAGGKLTGYRHMALEIVDLLSKRLKSEFGLKFDKCATKHLTISGGDVGGSANFDKFIEQKVEEAKSYQIDESTARHFASKYGSNAEELFKIAQTAQYQETGLPLDIYTELVYSIQNEMVYRPTDFFIRRTGKLYFKIDDVLNYKEQVIDVMAGLLGYTNIEKEAYTKELQIAIDEAQTGNHQPAVKELEHHHHHH | not soluble |
| EITPLFFQKELATPVDNLKPYTALQMEGRDIYIREGCSNCHSQMIRPFRAETERYGHYSVAGESVWEHPFLWGSKRTGPDLARVGGRYSDDWHIAHLTDPRSVVPESNMPAYSWLNTDTLDGELTGKKLATFNFLTRNRSHKDENGNAIPLYTQAEIDGAKDAVKGKTEMSALIAYLQSLGH | not soluble |
| GAQNQDCAFFFPNQEGEQITRNCYTADGKLTNILVYRVDQAYEYPSGMEVVANYTFADAAGKTLNSGQMVARCSDGNFSMSMGDVATFPTALNMMNADVYMMGDLMNYPDAFSNPMNPGDDDEFDDGTLRLYQKGNKNNRAEISVFDREFVTTETVNTPAGAFYCTKVKYEMNIWTPKETIKGYGYEWYAPNIGIVRSEQYNNKKELQSYSVLERIKK | soluble |
| MHHHHHHSSGVDLGTENLYFQSNAMKKVLIVFGTRPEAIKMAPLVQQLCQDNRFVAKVCVTGQHREMLDQVLELFSITPDFDLNIMEPGQTLNGVTSKILLGMQQVLSSEQPDVVLVHGDTATTFAASLAAYYQQIPVGHVEAGLRTGNIYSPWPEEGNRKLTAALTQYHFAPTDTSRANLLQENYNAENIFVTGNTVIDALLAVREKIHTDMDLQATLESQFPMLDASKKLILVTGHRRESFGGGFERICQALITTAEQHPECQILYPVHLNPNVREPVNKLLKGVSNIVLIEPQQYLPFVYLMDRAHIILTDSGGIQEEAPSLGKPVLVMRETTERPEAVAAGTVKLVGTNQQQICDALSLLLTDPQAYQAMSQAHNPYGDGKACQRIADILAK | soluble |
| MDKSTKDFMDLKKIGGDDERERRFSDASDTSMDCHMESIGSRRRDSLIEQFRDFLNRSMDFSVKIDDPFEKEMY | not soluble |
| MGSDKIHHHHHHMAQHEMSPRANSETDTVVLDAPGKSVYESLCEKINLTPVKATRPMESFQSADALSESSLDERVAQAMTVFLKMIQDSSQQVDRLDKSLLDFHIAHLDQQISQQLDAIMHHETFQQIESAWRGLKFLVDRTDFRKNVKIEVLDVSKDALRQDFEDTPELIQSGLYLHTYIQEYDTPGGEPVGSIISNYEFDRSQQDIVLLRNISKVSAAAHMPFIGSVSPKFFGKDSMDEVASIRDIGNYFDRAEYLKWKSFRDSDDARYIGLTLPRFLARLPYGPDTVPVRAFNYTEAVKGPDHSRYLWGNASFAFAVNMVQSFIKNGWCVQIRGPQAGGLVEDLPIHLYDLGTGNQAKIPTEVLIPETREFEFANLGFIPLSYYKNHDFACFFSAHSAQKPALYDTKEATANSRVNARLPYIFLLSRIAHYLKLIQRENIGTTKDRRVLELELNTWIKTLVTEMTDPGDELQASHPLREAKVIVEDIEDNPGFFRVKLFIVPHFQIEGMDINLSLVSQMPKAKTDRLLSASTAI | not soluble |
| AKTPVREILLFDSDEFLQHNAFRAPGAPTLEALRDAEKKVEYFKSIYSNMHKRISTSSTYIDEENLELLNGVTFAFICIDAGTSKKSIVQKLEELDIPFVDVGM | not soluble |
| VNKSQLIDKIAAGADISKAAAGRALDAIIASVTESLKEGDDVALVGFGTFAVKERAARTGRNPQTGKEITIAAAKVPSFRAGKALKDAVN | soluble |
